Experimental data published in patent US20240148866A1 (DENALI THERAPEUTICS, published 2024).

Columns and labels:
[1] = target: T1, Fc fusion of the 9th domain of human cation independent mannose-6-phosphate receptor (ciM6PR; Uniprot P11717) (human, UniProt P11717 1225-1363, limits assumed); assay: ELISA: plate coated with the Fc fusion of ciM6PR domain 9, IgG:IDS titrated, detection with biotinylated anti-IDS antibody and streptavidin-HRP, A450
T1 construct: domain: 9th domain; It was coated on ELISA plates at 1 ug/mL
T1 sequence (P11717 1225-1363 limits assumed, one chain of several): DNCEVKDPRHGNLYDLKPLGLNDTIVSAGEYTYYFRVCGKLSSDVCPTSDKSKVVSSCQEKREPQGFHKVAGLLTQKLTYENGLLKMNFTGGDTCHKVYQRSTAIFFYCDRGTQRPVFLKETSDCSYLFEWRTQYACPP
Experimental: ELISA plates were coated with an Fc fusion of the 9th domain of human cation independent mannose-6-phosphate receptor (ciM6PR; Uniprot P11717) at 1 μg/mL in PBS overnight at 4° C. The following day, the plate was washed three times with wash buffer (PBS with 0.02% Tween-20) and blocking buffer (PBS with 0.02% Tween-20 and 5% BSA) was added to each well. Blocking was carried out for 1 hour at room temperature after which the plate was washed three times, and IgG:IDS was added to the first column of the plate at a concentration of 25 nM. A 3-fold serial dilution was performed across the plate. Primary incubation of the binding reactions was carried out for one hour at room temperature. After binding, the plate was washed three times, and binding was detected using biotinylated anti-IDS antibody diluted to 0.0625 μg/mL in sample buffer. The plate was incubated with a detection antibody for one hour at room temperature and then washed three times. Streptavidin-HRP, diluted 1:50,000 in sample buffer, was then added to each well. The plate was incubated for 30 minutes at room temperature and then washed three times. The ELISA was developed using TMB reagent. The ELISA plate was read on a HighRes BioTek Synergy plate reader, where the absorbance at 450 nm was recorded.

[2] = target: T2, apical domain of human transferrin receptor (hTfR^apical) (human, UniProt P02786 198-378); assay: SPR (Biacore T200), IgG:IDS captured on Protein A chip, hTfR apical domain injected, single-cycle kinetics
T2 construct: also called apical domain of hTfR
T2 sequence (P02786 198-378 limits assumed): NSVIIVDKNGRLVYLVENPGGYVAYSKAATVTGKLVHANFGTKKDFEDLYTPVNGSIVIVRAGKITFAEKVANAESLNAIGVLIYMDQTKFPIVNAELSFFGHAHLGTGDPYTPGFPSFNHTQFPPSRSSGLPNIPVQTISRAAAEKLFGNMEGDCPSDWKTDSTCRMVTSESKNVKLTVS
Experimental: (§1) The affinity of IgG:IDS for human transferrin receptor (hTfR) was determined by surface plasmon resonance on a Biacore™ T200 instrument using two methods, similar to previously described (Kariolis et al. 2020. Sci Transl Med 12(545):eaay1359). In Method 1, to evaluate monovalent TfR binding affinity, IgG:IDS was captured on a Protein A-coated Biacore™ Series S CM5 sensor chip and serial dilutions of the apical domain of hTfR (hTfR^apical) were injected over the captured sample. In Method 2, for evaluation of apparent hTfR binding affinity of IgG:IDS, biotinylated full-length hTfR was immobilized on a streptavidin-coated CM5 sensor chip, followed by injection of serial dilutions of IgG:IDS. For both methods, the single-cycle kinetics mode was used for sample injection (association time, 90 s; dissociation time, 600 s), and binding affinities were calculated using Biacore T200 Evaluation Software v3.0.

[3] = target: T3, biotinylated full-length human transferrin receptor (hTfR) (human, UniProt P02786 89-760, limits assumed, biotinylated (site not stated)); assay: SPR (Biacore T200), biotinylated full-length hTfR on streptavidin chip, IgG:IDS injected, single-cycle kinetics; apparent (avid) affinity
T3 construct: Printed as 'biotinylated full-length hTfR', immobilized on a streptavidin chip; also called full-length hTfR; full-length receptor
T3 sequence (P02786 89-760 limits assumed): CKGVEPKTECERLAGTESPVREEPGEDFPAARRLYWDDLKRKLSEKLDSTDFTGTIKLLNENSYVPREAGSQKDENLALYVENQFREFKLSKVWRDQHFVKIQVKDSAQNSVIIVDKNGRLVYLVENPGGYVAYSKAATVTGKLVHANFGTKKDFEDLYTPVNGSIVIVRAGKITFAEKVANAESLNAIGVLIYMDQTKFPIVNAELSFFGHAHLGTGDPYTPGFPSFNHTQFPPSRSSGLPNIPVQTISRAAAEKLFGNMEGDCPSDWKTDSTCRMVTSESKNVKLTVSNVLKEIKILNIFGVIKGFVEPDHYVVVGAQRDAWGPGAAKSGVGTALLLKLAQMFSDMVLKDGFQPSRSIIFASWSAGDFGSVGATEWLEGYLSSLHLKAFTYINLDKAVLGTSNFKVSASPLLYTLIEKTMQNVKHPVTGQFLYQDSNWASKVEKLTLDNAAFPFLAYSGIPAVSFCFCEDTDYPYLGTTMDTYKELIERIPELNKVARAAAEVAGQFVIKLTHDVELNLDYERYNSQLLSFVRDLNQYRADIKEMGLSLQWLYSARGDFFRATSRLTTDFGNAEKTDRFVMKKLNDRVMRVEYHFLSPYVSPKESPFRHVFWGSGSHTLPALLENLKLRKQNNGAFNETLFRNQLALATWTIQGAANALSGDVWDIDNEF
Experimental: as §1

EC50 (read off the curve) [1]: ~0.08 nM | Kd [2]: 2.6 nM | Kd [3]: ~0.1 nM
B1: IgG:IDS fusion protein (anti-transferrin receptor antibody with an IDS enzyme linked to the C-terminus of each heavy chain) (antibody)
heavy: not shown
light: DIVMTQTPLSLSVTPGQPASISCRSSQSLVHSNGNTYLHWYLQKPGQSPQLLIYKVSNRFSGVPDRFSGSGSGTDFTLKISRVEAEDVGVYYCSQSTHVPWTFGQGTKVEIKRTVAAPSVFIFPPSDEQLKSGTASVVCLLNNFYPREAKVQWKVDNALQSGNSQESVTEQDSKDSTYSLSSTLTLSKADYEKHKVYACEVTHQGLSSPVTKSFNRGEC
modifications: formylglycine (fG) in place of the Cys in the IDS part in the form given as SEQ ID NO:18; glycans carry about 1.5-2.3 mol/mol M6P and about 15-16 mol/mol sialic acid per fusion protein
notes: Antibody-enzyme fusion with human IgG1 constant regions, expressed in ExpiCHO cells co-transfected with SUMF1
